Source: article PMC2958839, “Multiple FadD Acyl-CoA Synthetases Contribute to Differential Fatty Acid Degradation and Virulence in Pseudomonas aeruginosa” (PLoS ONE, 2010)

Legend:
Assay in all cases: purified protein
Details in all cases: 5 mM ATP, 0.5 mM CoASH, 30-300 µM FA, 10 mM MgCl2, 0.1% Triton X-100, pH 7.2, 37°C, printed unit mM conflicts with printed kcat/Km and FA range (implies µM)
[1] = test system: CCCCCC(=O)O
[2] = test system: CCCCCCCC(=O)O
[3] = test system: CCCCCCCCCCCC(=O)O
[4] = test system: CCCCCCCCCCCCCC(=O)O
[5] = test system: CCCCCCCCCCCCCCCC(=O)O
[6] = test system: CCCC(=O)O
Text: (§1) DTNB (Ellman) assay of CoASH consumption, A412, Hanes-Woolf plot on FadD1

[7] = test system: CCCCCCCCCC(=O)O
Text: as §1

Substance	kcat [1] [s⁻¹]	kcat [2] [s⁻¹]	kcat [3] [s⁻¹]	kcat [4] [s⁻¹]	kcat [5] [s⁻¹]	kcat [6] [s⁻¹]	kcat [7] [s⁻¹]
FadD2 (Pseudomonas aeruginosa PAO1)	0.164	0.210	0.141	0.112	0.102	–	–
FadD1 (Pseudomonas aeruginosa PAO1)	0.137	0.128	0.134	0.134	0.158	0.141	0.119
